Measured values reported in the supplement of paper PMC11316812.
± gives the standard deviation of the averaged measurements.

Assays:
[1] = tested on: MCF7; assay: percentage of EdU-negative (G0-arrested) nuclei per well, 72 h; higher = more G0 arrest; conditions: reference: sequence is the full UniProt precursor, the tested protein was the secreted form or ectodomain
[2] = tested on: hTERT-HMEC; assay: as above; conditions: reference: sequence is the full UniProt precursor, the tested protein was the secreted form or ectodomain
[3] = protein concentration 0.0225 µM
[4] = protein concentration 0.03125 µM
[5] = protein concentration 0.3125 µM
[6] = protein concentration 0.01275 µM
[7] = protein concentration 0.1275 µM
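Further: secreted proteins added to cultured cells, EdU pulse at the end, nuclei found by Hoechst imaging, EdU status from nuclear versus surrounding ring intensity ratio, PBS as neutral control.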

Row | Sequence | percentage of EdU-negative [1, 3] | percentage of EdU-negative ([1]; protein concentration 0.225 µM) | percentage of EdU-negative [2, 3] | percentage of EdU-negative ([2]; protein concentration 0.225 µM) | further results
1 | MAAPGSARRPLLLLLLLLLLGLMHCASAAMFMVKNGNGTACIMANFSAAFSVNYDTKSGPKNMTFDLPSDATVVLNRSSCGKENTSDPSLVIAFGRGHTLTLNFTRNATRYSVQLMSFVYNLSDTHLFPNASSKEIKTVESITDIRADIDKKYRCVSGTQVHMNNVTVTLHDATIQAYLSNSSFSRGETRCEQDRPSPTTAPPAPPSPSPSPVPKSPSVDKYNVSGTNGTCLLASMGLQLNLTYERKDNTTVTRLLNINPNKTSASGSCGAHLVTLELHSEGTTVLLFQFGMNASSSRFFLQGIQLNTILPDARDPAFKAANGSLRALQATVGNSYKCNAEEHVRVTKAFSVNIFKVWVQAFKVEGGQFGSVEECLLDENSMLIPIAVGGALAGLVLIVLIAYLVGRKRSHAGYQTI | 27.7 ± 2.6% | 28.6 ± 2.1% | 4.801 ± 0.044% | 7.68 ± 1.6% | –
2 | MAAPSGGWNGVGASLWAALLLGAVALRPAEAVSEPTTVAFDVRPGGVVHSFSHNVGPGDKYTCMFTYASQGGTNEQWQMSLGTSEDHQHFTCTIWRPQGKSYLYFTQFKAEVRGAEIEYAMAYSKAAFERESDVPLKTEEFEVTKTAVAHRPGAFKAELSKLVIVAKASRTEL [Q969H8] | – | – | – | – | percentage of EdU-negative [1, 4]: 25.7 ± 1.8%; percentage of EdU-negative [1, 5]: 24.42 ± 0.17%; percentage of EdU-negative [2, 4]: 4.64 ± 1%; percentage of EdU-negative [2, 5]: 5.57 ± 0.44%
3 | MAAPVPWACCAVLAAAAAVVYAQRHSPQEAPHVQYERLGSDVTLPCGTANWDAAVTWRVNGTDLAPDLLNGSQLVLHGLELGHSGLYACFHRDSWHLRHQVLLHVGLPPREPVLSCRSNTYPKGFYCSWHLPTPTYIPNTFNVTVLHGSKIMVCEKDPALKNRCHIRYMHLFSTIKYKVSISVSNALGHNATAITFDEFTIVKPDPPENVVARPVPSNPRRLEVTWQTPSTWPDPESFPLKFFLRYRPLILDQWQHVELSDGTAHTITDAYAGKEYIIQVAAKDNEIGTWSDWSVAAHATPWTEEPRHLTTEAQAAETTTSTTSSLAPPPTTKICDPGELGSGGGPSAPFLVSVPITLALAAAAATASSLLI | 25 ± 1.9% | 27.1 ± 2.6% | 5 ± 0.54% | 6.52 ± 0.21% | –
4 | MAAQGCAASRLLQLLLQLLLLLLLLAAGGARARWRGEGTSAHLRDIFLGRCAEYRALLSPEQRNKNCTAIWEAFKVALDKDPCSVLPSDYDLFINLSRHSIPRDKSLFWENSHLLVNSFADNTRRFMPLSDVLYGRVADFLSWCRQKNDSGLDYQSCPTSEDCENNPVDSFWKRASIQYSKDSSGVIHVMLNGSEPTGAYPIKGFFADYEIPNLQKEKITRIEIWVMHEIGGPNVESCGEGSMKVLEKRLKDMGFQYSCINDYRPVKLLQCVDHSTHPDCALKSAAAATQRKAPSLYTEQRAGLIIPLFLVLASRTQL | 25.74 ± 0.03% | 23.5 ± 0.97% | 5.33 ± 0.28% | 5.57 ± 1% | –
5 | MAARALCMLGLVLALLSSSSAEEYVGLSANQCAVPAKDRVDCGYPHVTPKECNNRGCCFDSRIPGVPWCFKPLQEAECTF | 26.62 ± 0.26% | 24 ± 0.99% | 4.3 ± 0.16% | 4.29 ± 0.22% | –
6 | MAARRSQRRRGRRGEPGTALLVPLALGLGLALACLGLLLAVVSLGSRASLSAQEPAQEELVAEEDQDPSELNPQTEESQDPAPFLNRLVRPRRSAPKGRKTRARRAIAAHYEVHPRPGQDGAQAGVDGTVSGWEEARINSSSPLRYNRQIGEFIVTRAGLYYLYCQVHFDEGKAVYLKLDLLVDGVLALRCLEEFSATAASSLGPQLRLCQVSGLLALRPGSSLRIRTLPWAHLKAAPFLTYFGLFQVH | 24.6 ± 1.4% | 24.3 ± 3.4% | 12.2 ± 2.6% | 13.4 ± 1.1% | –
7 | MAASRWARKAVVLLCASDLLLLLLLLPPPGSCAAEGSPGTPDESTPPPRKKKKDIRDYNDADMARLLEQWEKDDDIEEGDLPEHKRPSAPVDFSKIDPSKPESILKMTKKGKTLMMFVTVSGSPTEKETEEITSLWQGSLFNANYDVQRFIVGSDRAIFMLRDGSYAWEIKDFLVGQDRCADVTLEGQVYPGKGGGSKEKNKTKQDKGKKKKEGDLKSRSSKEENRAGNKREDL | 27.3 ± 3.2% | 27.3 ± 1% | 5.03 ± 0.66% | 11 ± 0.91% | –
8 | MAATSLMSALAARLLQPAHSCSLRLRPFHLAAVRNEAVVISGRKLAQQIKQEVRQEVEEWVASGNKRPHLSVILVGENPASHSYVLNKTRAAAVVGINSETIMKPASISEEELLNLINKLNNDDNVDGLLVQLPLPEHIDERRICNAVSPDKDVDGFHVINVGRMCLDQYSMLPATPWGVWEIIKRTGIPTLGKNVVVAGRSKNVGMPIAMLLHTDGAHERPGGDATVTISHRYTPKEQLKKHTILADIVISAAGIPNLITADMIKEGAAVIDVGINRVHDPVTAKPKLVGDVDFEGVRQKAGYITPVPGGVGPMTVAMLMKNTIIAAKKVLRLEEREVLKSKELGVATN | – | – | – | – | percentage of EdU-negative [1, 6]: 24 ± 0.89%; percentage of EdU-negative [1, 7]: 29 ± 2%; percentage of EdU-negative [2, 6]: 4.46 ± 0.17%; percentage of EdU-negative [2, 7]: 5.45 ± 0.4%
